From US20260258083A1 (Amgen, published 2026) come the findings set out here.

Where no end group is shown, it is not given here. Side-chain parts run from the residue outwards. [ ]: non-standard residue; d: D form. thiosuccinimide (maleimide) = thiosuccinimide linkage from the Cys thiol to the maleimide of 4-arm 5 kDa PEG; thiosuccinimide = thiosuccinimide linkage joining the Cys side chain to 4-arm 5 kDa PEG; pGlu = O=C1CC[C@@H](C(=O)O)N1; disulfide = not defined here; MAL = maleimide

For assay [1], the target named is T1, FLT3xCD3 TCE SEQ ID NO 93.
T1 construct: Single-chain scFv-scFv-scFc T cell engager; also called FLT3×CD3ε TCE; FLT3_7 A8xCD3-scFc Bispecific HLE molecule
As to the kind of experiment: KinExA equilibrium in solution, Table 5. On the procedure: (§1) 1. Preparation of NHS-activated sepharose fast-flow beads: [0565] 2. Fast flow sepharose suspension in 100% IPA, washed twice with milliQ H20, mild centrifugation to pool beads in between wash steps. [0566] 3. […] 4. Added 80 mM PDEA to activate the resin for thiol exchange, 10 mins, r.t. [0568] 5. […] 6. Added 30 μg/mL of binding peptide, […] […] (SEQ ID NO: 300), reaction for 1 hr to functionalize resin. [0570] 7. Quench with 10 mM L-Cys for 1 hour. [0571] 8.
(In general: In KinExA the mixture passes briefly over coated beads that capture the unbound partner.)

Assay [2] deals with T1, FLT3xCD3 TCE SEQ ID NO 93. The assay can be described thus: KinExA equilibrium in solution, KD relative to peptide concentration, TCE 125 pM.
For assay [3], the target named is T2, DLL3xCD3 TCE SEQ ID NO 104.
T2 construct: Single-chain T cell engager; also called DLL3×CD3ε TCE
As to the kind of experiment: KinExA equilibrium in solution, KD relative to peptide concentration, TCE 250 pM.

Assay [4] addresses T1, FLT3xCD3 TCE SEQ ID NO 93. The assay can be described thus: SPR solution competition, peptide titrated into fixed TCE, free TCE read on peptide capture surface. From the text:
(§2) For the binding assessment, Individual binding isotherms were constructed by titrating the respective peptide of interest into a fixed concentration of TCE-containing solution in PBST. At least 4 hrs equilibration time were allotted (r.t.) prior to analysis by SPR. For the analysis, a calibration curve was first constructed of the TCE analyte being assessed. […] The ‘free’ TCE concentration measured was plotted as a function of log peptide concentration and fit using non-linear regression analysis to a 4 parameter logistic function to derive an IC50.

Assay [5] has as its target T1, FLT3xCD3 TCE SEQ ID NO 93. The assay can be described thus: Table 5, ratio to a reference peptide that the table does not name. Details: reference not given here.
The target of assay [6] is T1, FLT3xCD3 TCE SEQ ID NO 93. The assay can be described thus: kinetics, Table 5. As to the method: as §1
Assay [7] addresses T1, FLT3xCD3 TCE SEQ ID NO 93. As to the kind of experiment: KinExA association kinetics, Table 5. On the procedure:
as §1

The target in assay [8] is T1, FLT3xCD3 TCE SEQ ID NO 93. As to the kind of experiment: KinExA equilibrium in solution, Table 5; single reference peptide QDGNEEMG (original CD3ε epitope). On the procedure:
as §1

Assay [9] deals with CDH3-CD3-MSLN-CD3 TCE (SEQ ID NO 255). As to the kind of experiment: KinExA equilibrium in solution, KD relative to peptide concentration, TCE 250 pM.
For assay [10], the target named is T2, DLL3xCD3 TCE SEQ ID NO 104. The assay can be described thus: SPR, peptide immobilised on CM5 (PDEA), TCE as analyte, kinetic 1:1 fit.
In assay [11] the target is T3, Steap 1xCD3 TCE SEQ ID NO 373 + 374 + 375.
T3 construct: also called STEAP1×CD3e heterodimeric TCE; Ab-A1 Xmab2+1
Described as above.

Assay [12] addresses T1, FLT3xCD3 TCE SEQ ID NO 93. The assay is described as above.
For assay [13], the target named is T3, Steap 1xCD3 TCE SEQ ID NO 373 + 374 + …. The assay can be described thus: SPR solution competition, peptide titrated into fixed TCE, free TCE read on peptide capture surface.
Excerpt: as §2

Assay [14] addresses CDH3-CD3-MSLN-CD3 TCE (SEQ ID NO 255). As to the kind of experiment: SPR, immobilised peptide, bivalent analyte model, fast component.
The target is the same in assay [15]. As to the kind of experiment: SPR, peptide immobilised on CM5 (PDEA), TCE as analyte, steady state affinity.

CDH3-CD3-MSLN-CD3 TCE (SEQ ID NO 255), sequence (chain, as listed by the source): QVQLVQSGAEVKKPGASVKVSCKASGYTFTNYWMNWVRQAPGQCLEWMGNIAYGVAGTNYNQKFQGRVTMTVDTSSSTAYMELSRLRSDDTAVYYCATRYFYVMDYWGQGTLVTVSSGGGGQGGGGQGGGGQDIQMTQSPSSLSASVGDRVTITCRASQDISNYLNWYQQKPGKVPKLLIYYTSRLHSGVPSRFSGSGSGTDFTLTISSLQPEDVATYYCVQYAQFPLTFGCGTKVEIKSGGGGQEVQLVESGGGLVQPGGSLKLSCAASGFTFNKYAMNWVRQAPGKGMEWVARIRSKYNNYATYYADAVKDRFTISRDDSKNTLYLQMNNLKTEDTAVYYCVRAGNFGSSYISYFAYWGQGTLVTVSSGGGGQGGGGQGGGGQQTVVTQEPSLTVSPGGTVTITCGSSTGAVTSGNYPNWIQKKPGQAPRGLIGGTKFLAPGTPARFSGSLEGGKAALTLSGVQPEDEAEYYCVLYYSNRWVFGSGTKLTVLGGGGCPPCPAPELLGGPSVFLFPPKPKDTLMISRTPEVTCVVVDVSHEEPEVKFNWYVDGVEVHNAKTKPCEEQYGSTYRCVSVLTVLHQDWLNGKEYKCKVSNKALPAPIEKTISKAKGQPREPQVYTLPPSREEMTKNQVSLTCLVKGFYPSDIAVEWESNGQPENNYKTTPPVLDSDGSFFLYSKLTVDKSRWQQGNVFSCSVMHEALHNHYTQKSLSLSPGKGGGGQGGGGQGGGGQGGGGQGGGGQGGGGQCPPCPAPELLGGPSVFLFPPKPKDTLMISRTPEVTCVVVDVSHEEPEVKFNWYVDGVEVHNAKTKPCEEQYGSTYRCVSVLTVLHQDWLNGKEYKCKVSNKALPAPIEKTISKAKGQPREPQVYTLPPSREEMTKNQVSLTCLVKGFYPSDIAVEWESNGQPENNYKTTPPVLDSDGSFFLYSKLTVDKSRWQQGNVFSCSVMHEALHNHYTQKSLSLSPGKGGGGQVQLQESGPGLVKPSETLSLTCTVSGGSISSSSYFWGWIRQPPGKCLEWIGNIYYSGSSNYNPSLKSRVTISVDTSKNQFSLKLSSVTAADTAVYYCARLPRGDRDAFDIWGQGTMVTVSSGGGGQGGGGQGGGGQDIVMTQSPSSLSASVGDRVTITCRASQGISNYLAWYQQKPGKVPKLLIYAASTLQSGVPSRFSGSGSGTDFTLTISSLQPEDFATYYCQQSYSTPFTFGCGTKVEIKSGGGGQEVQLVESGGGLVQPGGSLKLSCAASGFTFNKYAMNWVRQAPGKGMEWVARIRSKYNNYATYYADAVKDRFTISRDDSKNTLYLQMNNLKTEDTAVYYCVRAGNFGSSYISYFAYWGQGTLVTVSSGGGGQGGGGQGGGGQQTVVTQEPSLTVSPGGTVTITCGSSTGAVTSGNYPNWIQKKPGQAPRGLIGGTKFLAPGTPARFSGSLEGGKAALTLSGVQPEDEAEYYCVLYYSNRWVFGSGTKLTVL

For the molecule [pGlu]DGNEELKGC([MAL-PEG 5 kDa]) (also: four peptides per PEG) [(pGlu-DGNEELKGC)4 -MAL PEG(5 kDa)], binding in [1] was characterised by a dissociation constant (Kd) of 0.142 nM.
For the molecule [pGlu]DGNEELKGC([thiosuccinimide-4‑arm PEG 5 kDa])-OH [72103-1], the affinity in assay [2], expressed as Kd, was 0.0777 nM.
The molecule [pGlu]DGNEELKGC([thiosuccinimide-4‑arm PEG 5 kDa])-NH2 (also: 4-arm PEG conjugate, number of peptide copies not given here) [79675-1] registered a Kd in assay [3] of 0.0623 nM.
[pGlu]DGNEELKPGC (Position 1 is written E for pGlu) [pGlu-DGNEELKPGC]: in [4], the IC50 came to 5.2 nM.

B1: QDGNEEMG-GMEENGDQ (peptide)
peptide: QDGNEEMGGMEENGDQ
notes: how the reversed half is joined is not explained
Turning to B1, in [5], the fold-Kd worked out at 3.62 fold, the fold-koff was found to be 0.19 fold and the fold-kon amounted to 0.69 fold. The molecule also displayed a dissociation rate constant (koff) in assay [6] of 0.00471 s⁻¹. This molecule gave a dissociation constant Kd in assay [1] of 9.88 nM. The association rate constant (kon) in assay [7] is 476000 M⁻¹ s⁻¹.

B2: (pGlu-DGNEEMGKGMEENGDQC)4 -PEG(20 kDa) (peptide)
peptide: [pGlu]DGNEEMGKGMEENGDQC([disulfide-4‑arm PEG 20 kDa])
modifications: reading uncertain; also: four peptides on one 4-arm PEG, printed as pGlu-DGNEEMGKGMEENGDQC
notes: also called CD3ε PepPOL, v2; Pep-PEG v2
Take B2: in assay [5], the fold-Kd turned out to be 203 fold, the fold-koff was 0.01 fold and the fold-kon worked out at 16.2 fold. Also, in assay [6], the koff is 0.00195 s⁻¹. Also, the Kd in assay [1] came to 0.176 nM. Besides, the association rate constant (kon) in [7] was determined as 1.12e+07 M⁻¹ s⁻¹.
For the molecule [pGlu]DGNEELKGC([MAL-PEG 10 kDa]) (also: four peptides per PEG) [(pGlu-DGNEELKGC)4 -MAL PEG(10 kDa)], the Kd in assay [1] amounted to 0.142 nM.
For the molecule QDGNEEMGKQDGNEEMG [QDGNEEMG-K-QDGNEEMG], in assay [5], the fold-Kd was 2.77 fold, the fold-koff is 0.28 fold and the fold-kon turned out to be 0.56 fold. Further, the koff in assay [6] stood at 0.00497 s⁻¹. Further, binding in assay [1] was characterised by a dissociation constant (Kd) of 8.05 nM. Besides, in assay [7], the kon worked out at 448000 M⁻¹ s⁻¹.
Regarding [pGlu]DGNEELPKPGC (Position 1 is written E for pGlu) [pGlu-DGNEELPKPGC], the concentration for half-maximal inhibition (IC50) in assay [4] came out at 2.7 nM.
Take QDGNEEMGQDGNEEMG [QDGNEEMG-QDGNEEMG]: in assay [5], the fold-Kd was 3.25 fold, the fold-koff stood at 0.24 fold and the fold-kon was 0.77 fold. In addition, in assay [6], the koff turned out to be 0.00586 s⁻¹. This molecule returned a Kd in [1] of 11 nM. The same molecule had a kon in assay [7] of 533000 M⁻¹ s⁻¹.
QDGNEEMG: the Kd in assay [8] worked out at 35.8 nM. Besides, in assay [6], the koff came out at 0.0248 s⁻¹. The IC50 in [4] amounted to 133 nM. In assay [7], this molecule registered an on-rate (kon) of 692000 M⁻¹ s⁻¹.
With [pGlu]DGNEEMGKGMEENGDQC (Position 1 is written E for pE) [pGlu-DGNEEMGKGMEENGDQC], the fold-Kd in [5] is 203 fold. In addition, the Kd in assay [1] is 0.176 nM. Further, the IC50 in assay [4] was determined as 2.4 nM.

B3: (QDGNEEMGKGMEENGDQC)4 -PEG(20 kDa) (peptide)
peptide: QDGNEEMGKGMEENGDQC(4‑arm PEG 20 kDa)
modifications: also: four peptides on one 4-arm PEG
notes: Peptide-PEG conjugate with four peptides on one PEG; also called CD3ε PepPOL, v1 (20 kDa); 4-arm 20 kDa PepPOL conjugate
In the case of B3, the fold-kon in assay [5] worked out at 1.14 fold. The molecule also showed an off-rate (koff) in assay [6] of 0.0047 s⁻¹. Besides, the dissociation constant (Kd) in assay [1] stood at 22 nM. The molecule also returned a kon in assay [7] of 199000 M⁻¹ s⁻¹.
As to [pGlu]DGNEELKGC([thiosuccinimide-4‑arm PEG 20 kDa])-NH2 (also: 4-arm PEG conjugate, number of peptide copies not given here) [79674-1], the Kd in assay [9] amounted to 0.0638 nM; in assay [3] it was 0.0372 nM.
Turning to QDGNEEMGK [QDGNEEMG-K], the koff in assay [6] came to 0.0179 s⁻¹. Besides, the Kd in assay [1] worked out at 22.3 nM. The same molecule returned a kon in assay [7] of 806000 M⁻¹ s⁻¹.
[pGlu]DGNEELKGC (also called ID 14974) [pGlu-DGNEELKGC]: the fold-Kd in assay [5] came out at 252 fold. For the same molecule, the Kd in assay [10] is 1.3 nM; in assay [11] it was 2.57 nM; in [12] it was 1.28 nM; in [1], 0.142 nM; in assay [15], 13.3 nM. In addition, the koff came to 0.00279 s⁻¹ in assay [10], 0.00514 s⁻¹ in assay [11], 0.0024 s⁻¹ in [12] and 0.0212 s⁻¹ in assay [14]. In addition, the on-rate (kon) in [10] came to 2.14e+06 M⁻¹ s⁻¹; in assay [11], 2e+06 M⁻¹ s⁻¹; in assay [12] it was 1.88e+06 M⁻¹ s⁻¹; in assay [14] it was 2.42e+06 M⁻¹ s⁻¹. Moreover, the 50% inhibitory concentration (IC50) in assay [13] amounted to 13.4 nM; in assay [4], 2.7 nM.
For [pGlu]DGIEELKGC (Position 1 is written E for pGlu) [pGlu-DGIEELKGC], the IC50 in assay [13] worked out at 11.6 nM; in [4], 3.6 nM.
On to [pGlu]DGEEELKGC([thiosuccinimide-4‑arm PEG 20 kDa])-NH2 (also: 4-arm PEG conjugate, number of peptide copies not given here, TCE masking molecule) [79676-1], for which the Kd in assay [3] turned out to be 12.8 nM.
For [pGlu]DGEEELKGC [pGlu-DGEEELKGC], the Kd in assay [10] was 20.5 nM; in assay [11] it was 27.4 nM; in assay [12], 7.3 nM; in assay [15], 72.5 nM. The koff in assay [10] stood at 0.0542 s⁻¹; in [11], 0.0834 s⁻¹; in [12] it was 0.0295 s⁻¹; in assay [14], 0.236 s⁻¹. The kon in assay [10] stood at 2.64e+06 M⁻¹ s⁻¹; in assay [11], 3.04e+06 M⁻¹ s⁻¹; in assay [12], 4.04e+06 M⁻¹ s⁻¹; in assay [14] it was 1.29e+06 M⁻¹ s⁻¹. Besides, the values for the IC50 in [13] and in assay [4] were 28.6 nM and 14.7 nM, respectively.
[pGlu]DGTEELKGC (Position 1 is written E for pGlu) [pGlu-DGTEELKGC]: the figures for the Kd in assay [10], in assay [11] and in assay [12] were 14.8 nM, 35.2 nM and 8.88 nM, respectively. In addition, the off-rate constant (koff) in [10] stood at 0.0713 s⁻¹; in assay [11], 0.0734 s⁻¹; in assay [12], 0.0285 s⁻¹. Also, the figures for the kon in [10], in assay [11] and in assay [12] were 4.81e+06 M⁻¹ s⁻¹, 2.09e+06 M⁻¹ s⁻¹ and 3.21e+06 M⁻¹ s⁻¹, respectively. The values for the IC50 in assay [13] and in [4] were 59.9 nM and 39.7 nM, respectively.
In assay [3], [pGlu]DGEEELKGC([thiosuccinimide (maleimide)-4‑arm PEG 5 kDa])-NH2 (also: 4-arm PEG conjugate, number of peptide copies not given here, TCE masking molecule) [79677-1] gave a Kd of 4.69 nM.
Take [pGlu]DGSEELKGC (Position 1 is written E for pGlu) [pGlu-DGSEELKGC]: the half-inhibitory concentration (IC50) in assay [13] was found to be 16.7 nM; in assay [4], 8.2 nM.
Regarding [pGlu]DGVEELKGC (Position 1 is written E for pGlu) [pGlu-DGVEELKGC], the IC50 in [13] is 26.4 nM; in assay [4], 9 nM.

As a reminder, the Kd is a measure of binding affinity in units of concentration. Usually IC50 stands for the concentration that gives 50% inhibition. The term koff denotes the first-order rate constant of dissociation. A word on the kon: it is the rate constant with which the complex forms.
